Where “and” joins values, the source holds several entries; their conditions need not be identical. Equal entries are not always repeated. Non-standard residues stand in square brackets, D forms with d.
B1: cyclo-RLsKDK (BK-1361) (peptide)
peptide: cyclo(RL[dS]KDK)
SMILES: CC(C)C[C@@H]1NC(=O)[C@H](CCCNC(=N)N)NC(=O)[C@H](CCCCN)NC(=O)[C@H](CC(=O)O)NC(=O)[C@H](CCCCN)NC(=O)[C@@H](CO)NC1=O
B2: Inactive recombinant human ADAM8 (Met1-Pro497) (domain or fragment, UniProt P78325-1 17-497, looked up)
chain: IAPSRPWALMEQYEVVLPWRLPGPRVRRALPSHLGLHPERVSYVLGATGHNFTLHLRKNRDLLGSGYTETYTAANGSEVTEQPRGQDHCFYQGHVEGYPDSAASLSTCAGLRGFFQVGSDLHLIEPLDEGGEGGRHAVYQAEHLLQTAGTCGVSDDSLGSLLGPRTAAVFRPRPGDSLPSRETRYVELYVVVDNAEFQMLGSEAAVRHRVLEVVNHVDKLYQKLNFRVVLVGLEIWNSQDRFHVSPDPSVTLENLLTWQARQRTRRHLHDNVQLITGVDFTGTTVGFARVSAMCSHSSGAVNQDHSKNPVGVACTMAHEMGHNLGMDHDENVQGCRCQERFEAGRCIMAGSIGSSFPRMFSDCSQAYLESFLERPQSVCLANAPDLSHLVGGPVCGNLFVERGEQCDCGPPEDCRNRCCNSTTCQLAEGAQCAHGTCCQECKVKPAGELCRPKKDMCDLEEFCDGRHPECPEDAFQENGTP

Legend:
MMP-2 = MMP-2 (UniProt P08253 30-660); test: cell-based or functional assay
MMP-2, sequence (P08253 30-660): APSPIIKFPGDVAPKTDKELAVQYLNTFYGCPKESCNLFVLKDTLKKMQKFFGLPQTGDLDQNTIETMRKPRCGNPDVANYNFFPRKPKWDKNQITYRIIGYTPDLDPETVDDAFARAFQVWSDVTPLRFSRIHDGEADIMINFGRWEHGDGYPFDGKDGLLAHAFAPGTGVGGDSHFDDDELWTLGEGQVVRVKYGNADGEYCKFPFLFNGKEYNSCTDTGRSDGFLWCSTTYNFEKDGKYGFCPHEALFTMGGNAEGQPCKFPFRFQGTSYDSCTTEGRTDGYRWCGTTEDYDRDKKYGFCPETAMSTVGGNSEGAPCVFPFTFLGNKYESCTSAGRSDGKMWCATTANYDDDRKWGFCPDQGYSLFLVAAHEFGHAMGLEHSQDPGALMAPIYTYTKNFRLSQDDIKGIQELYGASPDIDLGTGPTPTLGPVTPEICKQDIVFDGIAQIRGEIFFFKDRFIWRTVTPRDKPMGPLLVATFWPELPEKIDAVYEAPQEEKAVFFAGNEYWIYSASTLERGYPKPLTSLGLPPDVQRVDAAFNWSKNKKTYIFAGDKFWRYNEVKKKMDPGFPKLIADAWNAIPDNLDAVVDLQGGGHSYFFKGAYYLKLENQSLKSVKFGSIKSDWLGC

MMP-14 = MMP-14 (UniProt P50281 112-541); test: cell-based or functional assay
native gel or EMSA = target: the molecule itself; test: native gel or EMSA

| Binder | IC50 of inhibition of catalytic activity (substrate Mca-PLGL-Dpa-AR-NH2) (MMP-2) [µM] | IC50 of inhibition of catalytic activity (substrate Mca-KPLGL-Dpa-AR-NH2) (MMP-14) [µM] | stoichiometry N (native gel or EMSA) |
| --- | --- | --- | --- |
| B1 | > 10 | > 10 | – |
| B2 | – | – | 2 and 3 |

Reference: article PMC5014123 (Nature communications, 2015)
